Source: IntAct's records for PubMed 22632968

B1: SUN domain-containing protein 2 (Homo sapiens), Q9UH99 (parent)
chain: MSRRSQRLTRYSQGDDDGSSSSGGSSVAGSQSTLFKDSPLRTLKRKSSNMKRLSPAPQLGPSSDAHTSYYSESLVHESWFPPRSSLEELHGDANWGEDLRVRRRRGTGGSESSRASGLVGRKATEDFLGSSSGYSSEDDYVGYSDVDQQSSSSRLRSAVSRAGSLLWMVATSPGRLFRLLYWWAGTTWYRLTTAASLLDVFVLTRRFSSLKTFLWFLLPLLLLTCLTYGAWYFYPYGLQTFHPALVSWWAAKDSRRPDEGWEARDSSPHFQAEQRVMSRVHSLERRLEALAAEFSSNWQKEAMRLERLELRQGAPGQGGGGGLSHEDTLALLEGLVSRREAALKEDFRRETAARIQEELSALRAEHQQDSEDLFKKIVRASQESEARIQQLKSEWQSMTQESFQESSVKELRRLEDQLAGLQQELAALALKQSSVAEEVGLLPQQIQAVRDDVESQFPAWISQFLARGGGGRVGLLQREEMQAQLRELESKILTHVAEMQGKSAREAAASLSLTLQKEGVIGVTEEQVHHIVKQALQRYSEDRIGLADYALESGGASVISTRCSETYETKTALLSLFGIPLWYHSQSPRVILQPDVHPGNCWAFQGPQGFAVVRLSARIRPTAVTLEHVPKALSPNSTISSAPKDFAIFGFDEDLQQEGTLLGKFTYDQDGEPIQTFHFQAPTMATYQVVELRILTNWGHPEYTCIYRFRVHGEPAH

Variants of: B1
Settings: with syne2_human SYNE2, Q8WXH0

Row | effect of a mutation on the interaction | Variant
1 | disrupting interaction strength | H628A
2 | disrupting interaction strength | S641E

Variants of: B1
Settings: with syne2_human SYNE2, Q8WXH0
Remark: another data set of the same source

Row | effect of a mutation on the interaction | Variant
3 | decreasing interaction strength | L536D
4 | decreasing interaction strength | D542N
